{"source": "FireProtDB (doi:10.1016/s0022-2836(03)00249-3)", "proteins": {"B1": {"name": "Transcriptional regulator URE2 wild type, P23202 (protein)", "chain": "MMNNNGNQVSNLSNALRQVNIGNRNSNTTTDQSNINFEFSTGVNNNNNNNSSSNNNNVQNNNSGRNGSQNNDNENNIKNTLEQHRQQQQAFSDMSHVEYSRITKFFQEQPLEGYTLFSHRSAPNGFKVAIVLSELGFHYNTIFLDFNLGEHRAPEFVSVNPNARVPALIDHGMDNLSIWESGAILLHLVNKYYKETGNPLLWSDDLADQSQINAWLFFQTSGHAPMIGQALHFRYFHSQKIASAVERYTDEVRRVYGVVEMALAERREALVMELDTENAAAYSAGTTPMSQSRFFDYPVWLVGDKLTIADLAFVPWNNVVDRIGINIKIEFPEVYKWTKHMMRRPAVIKALRGE"}}, "conditions": "Saccharomyces cerevisiae (strain ATCC 204508 / S288c), 25 °C, GdnHCl, reversible: yes, whole UniProt chain shown", "key": {"[1]": {"conditions": "pH 7, Fluorescence, Tris-HCl 50 mM, NaCl 0.2 M, transition: 2"}, "[2]": {"conditions": "pH 7.5, Fluorescence, Tris-HCl 50 mM, NaCl 0.2 M, transition: 2"}, "[3]": {"conditions": "pH 7.5, Fluorescence, Tris-phosphate 50 mM, NaCl 0.2 M, transition: 2"}, "[4]": {"conditions": "pH 8, CD, Na2HPO4-KH2PO4 50 mM, NaCl 0.15 M, transition: 3"}, "[5]": {"conditions": "pH 8, Fluorescence, Na2HPO4-KH2PO4 50 mM, NaCl 0.15 M, transition: 2"}, "[6]": {"conditions": "pH 8, Fluorescence, Tris-HCl 50 mM, NaCl 0.2 M, transition: 2"}, "[7]": {"conditions": "pH 8, Fluorescence, Tris-HCl 50 mM, NaCl 0.2 M, transition: 3"}, "[8]": {"conditions": "pH 8.4, Fluorescence, Tris-HCl 50 mM, NaCl 0.2 M, transition: 2"}, "[9]": {"conditions": "pH 8.5, Fluorescence, Na2HPO4-KH2PO4 50 mM, NaCl 0.15 M, transition: 2"}}, "note": "“And” between values parts separate entries of the source, which are not always exact repeats. Equal values may be shown once.", "data": [{"protein": "B1", "values": [{"measurement": "denaturant m value", "setting": "[1]", "result": 3.2, "unit": "kcal/mol/M"}, {"measurement": "denaturant midpoint (higher = more stable)", "setting": "[1]", "result": 2.4, "unit": "M"}, {"measurement": "unfolding free energy", "setting": "[1]", "result": 17, "unit": "kcal/mol"}, {"measurement": "unfolding free energy", "setting": "pH 7, Fluorescence, Tris-HCl 50 mM, NaCl 0.2 M, transition: 3", "result": 7.9, "unit": "kcal/mol"}, {"measurement": "denaturant m value", "setting": "[2]", "result": 3.6, "unit": "kcal/mol/M"}, {"measurement": "denaturant midpoint (higher = more stable)", "setting": "[2]", "result": 2.64, "unit": "M"}, {"measurement": "unfolding free energy", "setting": "[2]", "result": 20, "unit": "kcal/mol"}, {"measurement": "unfolding free energy", "setting": "pH 7.5, Fluorescence, Tris-HCl 50 mM, NaCl 0.2 M, transition: 3", "result": "8.8 kcal/mol and 8.5 kcal/mol and 8.9 kcal/mol"}, {"measurement": "denaturant m value", "setting": "[3]", "result": "4.8 kcal/mol/M and 5.2 kcal/mol/M"}, {"measurement": "denaturant midpoint (higher = more stable)", "setting": "[3]", "result": "2.66 M and 2.53 M"}, {"measurement": "unfolding free energy", "setting": "[3]", "result": "21 kcal/mol and 22 kcal/mol"}, {"measurement": "unfolding free energy", "setting": "pH 7.5, Fluorescence, Tris-phosphate 50 mM, NaCl 0.2 M, transition: 3", "result": 9, "unit": "kcal/mol"}, {"measurement": "denaturant midpoint (higher = more stable)", "setting": "[4]", "result": "2.33 M and 3.54 M"}, {"measurement": "unfolding free energy", "setting": "[4]", "result": 7, "unit": "kcal/mol"}, {"measurement": "denaturant m value", "setting": "[5]", "result": 4, "unit": "kcal/mol/M"}, {"measurement": "denaturant midpoint (higher = more stable)", "setting": "[5]", "result": 2.48, "unit": "M"}, {"measurement": "unfolding free energy", "setting": "[5]", "result": 19, "unit": "kcal/mol"}, {"measurement": "unfolding free energy", "setting": "pH 8, Fluorescence, Na2HPO4-KH2PO4 50 mM, NaCl 0.15 M, transition: 3", "result": "6.9 kcal/mol and 6.8 kcal/mol"}, {"measurement": "denaturant m value", "setting": "[6]", "result": "3 kcal/mol/M and 4.1 kcal/mol/M and 6 kcal/mol/M"}, {"measurement": "denaturant midpoint (higher = more stable)", "setting": "[6]", "result": "3 M and 2.84 M and 2.66 M"}, {"measurement": "unfolding free energy", "setting": "[6]", "result": "16 kcal/mol and 19 kcal/mol"}, {"measurement": "denaturant m value", "setting": "[7]", "result": "8 kcal/mol/M and 3 kcal/mol/M"}, {"measurement": "denaturant midpoint (higher = more stable)", "setting": "[7]", "result": "3.23 M and 2.67 M"}, {"measurement": "unfolding free energy", "setting": "[7]", "result": 8, "unit": "kcal/mol"}, {"measurement": "denaturant m value", "setting": "[8]", "result": "5 kcal/mol/M and 5.5 kcal/mol/M and 6.8 kcal/mol/M"}, {"measurement": "denaturant midpoint (higher = more stable)", "setting": "[8]", "result": "3.06 M and 2.95 M and 2.93 M"}, {"measurement": "unfolding free energy", "setting": "[8]", "result": "23 kcal/mol and 24 kcal/mol"}, {"measurement": "denaturant m value", "setting": "[9]", "result": 5, "unit": "kcal/mol/M"}, {"measurement": "denaturant midpoint (higher = more stable)", "setting": "[9]", "result": 2.57, "unit": "M"}, {"measurement": "unfolding free energy", "setting": "[9]", "result": 22, "unit": "kcal/mol"}, {"measurement": "unfolding free energy", "setting": "pH 8.5, Fluorescence, Na2HPO4-KH2PO4 50 mM, NaCl 0.15 M, transition: 3", "result": "7.6 kcal/mol and 7.4 kcal/mol and 7.5 kcal/mol"}]}]}
